Tests used:
[1] = target: T1, AviGO (glycine oxidase from A. vinelandii) (Azotobacter vinelandii, UniProt C1DPI5); assay: HRP-coupled H2O2 assay (4-aminoantipyrine / N,N-diethylaniline, […] nm), substrate inhibition model; type: biochemical; conditions: substrate inhibition constant; 100 mM Tris-HCl pH 8.5, free enzyme 20 nM
T1 construct: gene thiO; codon-optimised synthetic gene in pCold I (NdeI/XbaI), expressed in E. coli BL21(DE3); HisTrap then Q-Sepharose, vector His tag, no cleavage told
T1 sequence (C1DPI5 1-363): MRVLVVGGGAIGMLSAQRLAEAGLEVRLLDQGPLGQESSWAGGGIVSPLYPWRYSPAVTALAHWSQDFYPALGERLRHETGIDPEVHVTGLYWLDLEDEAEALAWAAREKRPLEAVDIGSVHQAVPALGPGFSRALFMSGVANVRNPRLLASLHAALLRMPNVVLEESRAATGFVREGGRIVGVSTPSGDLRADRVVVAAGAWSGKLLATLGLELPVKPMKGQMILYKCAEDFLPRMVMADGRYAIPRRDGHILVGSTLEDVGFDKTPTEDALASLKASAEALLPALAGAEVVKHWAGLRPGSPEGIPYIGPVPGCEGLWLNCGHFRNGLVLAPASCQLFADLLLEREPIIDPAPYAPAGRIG

[2] = target: T1, AviGO (glycine oxidase from A. vinelandii); assay: UV-visible spectroscopy of the purified enzyme; type: binding; conditions: copurified cofactor; occupancy, no affinity constant
Protocol: UV-visible spectroscopy of the purified enzyme on AviGO (glycine oxidase from A. vinelandii) | The FAD/AviGO ratio was calculated from UV-visible spectroscopy of the purified enzyme

purified protein [3] = substrate: NCC(=O)O; assay: purified protein; type: biochemical, Azotobacter vinelandii; conditions: 100 mM Tris-HCl pH 8.5, free enzyme 20 nM, 0.5-100 mM substrate, abstract prints Km 4.65
purified protein [4] = substrate: CNCC(=O)O; assay: purified protein; type: biochemical, Azotobacter vinelandii; conditions: 100 mM Tris-HCl pH 8.5, free enzyme 20 nM, 0.5-100 mM substrate

In the case of NCC(=O)O [glycine], the “Glycine / ksi” value [1] is reported as 23.00 ± 3.71 mM.

In the case of Cc1cc2nc3c(=O)[nH]c(=O)nc-3n(C[C@H](O)[C@H](O)[C@H](O)COP(=O)(O)OP(=O)(O)OC[C@H]3O[C@@H](n4cnc5c(N)ncnc54)[C@H](O)[C@@H]3O)c2cc1C [FAD], the FAD/AviGO ratio [2] is reported as 0.38.

B1: AviGO (glycine oxidase from A. vinelandii) (Azotobacter vinelandii DJ) (protein)
chain: MRVLVVGGGAIGMLSAQRLAEAGLEVRLLDQGPLGQESSWAGGGIVSPLYPWRYSPAVTALAHWSQDFYPALGERLRHETGIDPEVHVTGLYWLDLEDEAEALAWAAREKRPLEAVDIGSVHQAVPALGPGFSRALFMSGVANVRNPRLLASLHAALLRMPNVVLEESRAATGFVREGGRIVGVSTPSGDLRADRVVVAAGAWSGKLLATLGLELPVKPMKGQMILYKCAEDFLPRMVMADGRYAIPRRDGHILVGSTLEDVGFDKTPTEDALASLKASAEALLPALAGAEVVKHWAGLRPGSPEGIPYIGPVPGCEGLWLNCGHFRNGLVLAPASCQLFADLLLEREPIIDPAPYAPAGRIG
notes: codon-optimised synthetic gene in pCold I (NdeI/XbaI), expressed in E. coli BL21(DE3); HisTrap then Q-Sepharose, vector His tag, no cleavage told
Work on B1 yielded a Km (purified protein [3]) of 4.76 ± 0.83 mM, a kcat (purified protein [3]) of 0.38 ± 0.03 s⁻¹ and a Km (purified protein [4]) of 11.09 ± 0.75 mM. The kcat (purified protein [4]) was 0.62 ± 0.01 s⁻¹.
